Measurements reported in PMC4427162.

Assays:
[1] = target: Leishmania major tubulin-binding cofactor A (Leishmania major Friedlin); experiment: SEC; calibrated Superdex 75 26/60 column, 50 mM Tris-HCl, 250 mM NaCl pH 7.5, no reducing agent
[2] = target: Leishmania major tubulin-binding cofactor A (Leishmania major Friedlin); experiment: MALDI-TOF mass spectrometry; sample that was used for crystallization (the approx. 27 kDa gel-filtration peak)

stoichiometry N [1]: 2
stoichiometry N [2]: 2
Substance: Leishmania major tubulin-binding cofactor A (natural protein)
